{"source": "patent US20250215403A1", "about": "“Compositions and Methods for Cardiac Tissue Regeneration” (Temple University - Of The Commonwealth System Of Higher …, priority 2022, published 2025)", "molecules": {"B1": {"name": "PSAT1 modRNA: modified mRNA with N1-methylpseudouridine, transcribed in vitro, encoding phosphoserine aminotransferase 1 (ORF SEQ ID NO: 1, RNA SEQ ID NO: 2) (nucleic acid)", "chain": "AUGGAAGCCACCAAGCAAGUGGUUAACUUUGGGCCCGGGCCUGCCAAGCUGCCACACUCGGUAUUGUUGGAGAUCCAGAAGCAGCUACUAGACUACAGAGGACUCGGCAUCAGUGUGCUCGAAAUGAGUCACAGGUCAUCAGAUUUUGCCAAGAUUAUUGGCAAUACAGAGAAUCUUGUGAGGGAAUUGCUAGCUGUUCCCAACAACUACAAGGUGAUCUUUGUACAAGGAGGUGGGUCUGGCCAGUUCAGUGCUGUCCCCUUAAAUCUGAUUGGCCUGAAAGCUGGAAGGAGUGCUGACUACGUGGUGACCGGAGCUUGGUCAGCUAAGGCUGCGGAAGAAGCCAAGAAGUUUGGAACGGUGAACAUUGUCCACCCUAAACUUGGAAGUUACACAAAAAUUCCAGACCCAAGCACCUGGAACCUCAACCCGGACGCCUCCUAUGUAUACUUCUGUGCAAACGAGACUGUGCACGGGGUGGAGUUUGACUUCGUACCUGACGUCAAGGGAGCGGUGCUGGUCUGUGACAUGUCCUCAAACUUCUUAUCCAGGCCGGUGGAUGUUUCCAAGUUUGGUGUGAUUUUCGCUGGUGCUCAGAAGAAUGUUGGCUCUGCCGGGGUGACGGUGGUGAUUGUCCGGGAUGACCUGCUGGGGUUCUCGCUCAGAGAGUGCCCAUCAGUCCUUGACUACAAAGUGCAGGCUGGGAACAACUCUUUGUAUAACACACCUCCGUGCUUCAGCAUCUACGUCAUGGGCAUGGUCCUGGAAUGGAUCAAGAACAACGGCGGGGCCGCAGCCAUGGAGAAGCUCAGCUCCAUCAAAUCCCAAAUGAUUUAUGAGAUCAUUGAUAAUUCUCAAGGAUUUUAUGUAUGCCCAGUGGAGCGCCAGAAUAGAAGCAGGAUGAACAUCCCAUUUCGCAUUGGCAACGCCAAAGGAGACGAAGCUUUGGAAAAGCGGUUUCUUGACAAGGCGGUAGAACUCAACAUGAUCUCCUUGAAGGGGCACAGGUCAGUGGGAGGCAUUCGUGCCUCUCUGUAUAACGCUGUCACAACCGAAGACGUUGAGAAGCUGGCGGCCUUCAUGAAGAAUUUCUUGGAGAUGCAUCAGCUGUGA", "modifications": "N1-methylpseudouridine"}}, "key": {"[1]": {"test_system": "NRVM (neonatal rat ventricular CMs)", "assay": "NRVM transfection (modRNA, siRNA, PH755): CM cell cycle markers and CM number", "format": "cell-based", "procedure": "In vivo transfection of modRNA was done as described previously in a recent method paper (Magadum A., et al., Circulation. 2020, 141 (15): 1249-1265; Sultana N., et al., Mol Ther, 2017, 25 (6): 1306-1315) using sucrose citrate buffer containing 10 μl of sucrose in nuclease-free water (0.3 g/ml), 10 μl of citrate (0.1M pH-7; Sigma) mixed with 10 μl of different concentrations of modRNA in saline to a total volume of 30 μl. Immediately after LAD ligation, mice received an intra-myocardial injection of modRNA (100 μg) in total volume of 30 μL at 3 different sites (mid-anterior×2 places and apical anterior) in the peri-infarct area (Magadum A., et al., Circulation. 2020, 141 (15): 1249-1265; Magadum, A., et al., 2021, Advanced Science, 9:2004661). For in vitro transfection, RNAiMAX transfection reagent (Life Technologies) was used according to manufacturer's recommendation (Magadum A., et al., Circulation. 2020, 141 (15): 1249-1265; Sultana N., et al., Mol Ther, 2017, 25 (6): 1306-1315).\nMice hearts were harvested, weighed, and fixed in 4% PFA/PBS overnight on shaker and then washed with PBS for 1 hour and incubated in 30% sucrose/PBS at 4° C. for 12-18 hours. Hearts were then fixed in OCT and frozen at −80° C. (Magadum A., et al., Circulation. 2020, 141 (15): 1249-1265). Transverse heart sections (6-8 μm) were made using a cryostat. Frozen sections were rehydrated in PBS for 5-10 min followed by permeabilization with PBS with 0.1% Triton™ X100 (PBST) for 7-8 min. Heart sections were then treated with 3% H2O2 for 5 min and washed (3×5 min) with PBST. The samples were then blocked with PBS+10% Donkey normal serum+0.1% Triton™ X100 (PBSST) for 1 hour at room temperature. Primary antibodies (see complete list of primary antibodies used for this Example in Table 2 below) diluted in PBST were added and incubated overnight at 4° C. Slides were washed with PBST (3×5 min) followed by incubation with a secondary antibody (Invitrogen, 1:200) diluted in PBST for 90-120 min at room temperature. The samples were further washed with PBST (3×5 min) and stained with DAPI or Hoechst 33342 (1 μg/ml) diluted in PBST for 7 min. […] For immunostaining with wheat germ agglutinin (WGA) for CM size quantification, images were captured at 40× magnification, and ImageJ was used to determine the area of each cell. Quantitative analyses involved counting of multiple fields from 5-8 mouse hearts per group, and 3-4 sections/heart (˜50 cells per field assessed, for a total ˜250 cells per sample). […] BrdU positive CMs were counted in multiple fields from three independent samples per group and 3 sections/heart. The total number of CMs counted was ˜1-1.5×10^3 CMs per section. […]"}, "[2]": {"test_system": "serine synthesis pathway (SSP)", "assay": "Serine and glycine levels in mouse heart post-MI", "format": "in vivo", "conditions": "two days post-MI; HPLC study; vs Luc modRNA"}}}
{"molecule": "B1", "values": [{"measurement": "CM mitosis (pH3+)", "setting": "[1]; NRVM, after 3 days, vs Luc modRNA", "value": "significantly induced"}, {"measurement": "CM number", "setting": "[1]; NRVM, in 5 days, vs Luc modRNA", "value": "increased"}, {"measurement": "CM cell cycle restriction under SSP inhibition", "setting": "[1]; NRVM, PSAT1 modRNA plus PH755 10 μM, compared to control, significantly lower rate than PSAT1 modRNA alone", "value": "partially reversed"}, {"measurement": "dedifferentiation of CMs", "setting": "[1]; post-PSAT1 modRNA expression", "value": "Increased"}, {"measurement": "glycine levels in heart", "setting": "[2]", "value": "increase"}, {"measurement": "serine levels in heart", "setting": "[2]", "value": "increase"}]}
